Experiment in all cases: cell-based or functional assay
Parameters in all cases: AUC (IL-2 ELISA): unit not given beside the values

In assay [1] the target is chimeric receptor containing a rhesus macaque FcγRIII ectodomain and the CD3ζ intracellular signaling domain (rhesus macaque) (UniProt A3RFZ7).
In assay [2] the target is chimeric receptor containing a rhesus macaque FcγRIIB ectodomain and the CD3ζ intracellular signaling domain (rhesus macaque).
The target in assay [3] is chimeric receptor containing a rhesus macaque FcγRIIA ectodomain and the CD3ζ intracellular signaling domain (rhesus macaque).
Assay [4] has as its target chimeric receptor containing a rhesus macaque FcγRI ectodomain and the CD3ζ intracellular signaling domain (rhesus macaque).

Sequence of chimeric receptor containing a rhesus macaque FcγRIII ectodomain and the CD3ζ intracellular signaling domain (rhesus macaque) (A3RFZ7 whole entry, change not shown, the tested form may be a part): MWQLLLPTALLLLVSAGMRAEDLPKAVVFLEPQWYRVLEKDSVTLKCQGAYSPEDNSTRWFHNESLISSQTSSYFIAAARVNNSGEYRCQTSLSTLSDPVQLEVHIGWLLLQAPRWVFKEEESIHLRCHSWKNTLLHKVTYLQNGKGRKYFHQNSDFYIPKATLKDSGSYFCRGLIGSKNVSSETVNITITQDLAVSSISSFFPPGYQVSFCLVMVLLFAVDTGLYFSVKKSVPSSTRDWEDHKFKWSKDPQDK
Sequence of PGT121 (Mammalian) (antibody) (heavy): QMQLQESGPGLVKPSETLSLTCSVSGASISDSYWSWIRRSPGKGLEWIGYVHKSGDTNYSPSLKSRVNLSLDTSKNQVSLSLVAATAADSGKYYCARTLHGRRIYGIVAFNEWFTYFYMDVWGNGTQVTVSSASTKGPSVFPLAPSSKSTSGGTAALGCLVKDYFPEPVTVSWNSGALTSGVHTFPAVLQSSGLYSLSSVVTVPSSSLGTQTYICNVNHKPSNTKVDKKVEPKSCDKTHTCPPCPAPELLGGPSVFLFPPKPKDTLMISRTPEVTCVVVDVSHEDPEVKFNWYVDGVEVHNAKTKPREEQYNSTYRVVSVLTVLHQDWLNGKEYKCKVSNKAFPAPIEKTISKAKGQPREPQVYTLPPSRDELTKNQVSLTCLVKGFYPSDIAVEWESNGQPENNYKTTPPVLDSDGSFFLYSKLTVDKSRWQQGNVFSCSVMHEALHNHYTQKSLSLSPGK
Sequence of PGT121 (Mammalian) (antibody) (light): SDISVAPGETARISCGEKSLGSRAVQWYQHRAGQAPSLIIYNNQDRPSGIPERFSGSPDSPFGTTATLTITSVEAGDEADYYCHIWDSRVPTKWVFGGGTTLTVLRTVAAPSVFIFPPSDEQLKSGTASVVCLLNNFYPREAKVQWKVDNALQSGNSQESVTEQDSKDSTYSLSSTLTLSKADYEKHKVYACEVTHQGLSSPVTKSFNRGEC

On to Nb PGT121-KDEL (antibody), for which the AUC (IL-2 ELISA) amounted to 0.934 in assay [1], 0.4 in assay [2], 0.401 in assay [3] and 4.46 in assay [4]. The EC50 (IL-2 ELISA) in assay [1] was 3.57 µg/mL; in assay [2], > 50 µg/mL; in assay [3], > 50 µg/mL; in assay [4], 0.548 µg/mL.

Consider PGT121 (Mammalian) (antibody), for which the AUC (IL-2 ELISA) came to 0.636 in assay [2], 3.74 in assay [3] and 3.55 in assay [4]. In addition, the EC50 (IL-2 ELISA) was found to be 3.58 µg/mL in assay [2], 1.72 µg/mL in assay [3] and 0.619 µg/mL in assay [4].

On to VRC07-523-LS(Mammalian) (antibody), for which the AUC (IL-2 ELISA) in assay [1] was determined as 1.82; in assay [2], 1.36; in assay [3], 4.5; in assay [4] it was 4.37. Moreover, the EC50 (IL-2 ELISA) in assay [1] was 0.637 µg/mL; in assay [2] it was 1.95 µg/mL; in assay [3] it was 0.853 µg/mL; in assay [4], 0.303 µg/mL.

In the case of VRC07-523 (Mammalian) (antibody), the AUC (IL-2 ELISA) in assay [1] was 1.46; in assay [2], 1.26; in assay [3], 4.15; in assay [4] it was 4.14. For the same substance, the EC50 (IL-2 ELISA) was found to be 1.21 µg/mL in assay [1], 2.1 µg/mL in assay [2], 0.722 µg/mL in assay [3] and 0.326 µg/mL in assay [4].

Take Nb PGT121-YTE (antibody): the AUC (IL-2 ELISA) turned out to be 0.226 in assay [1], 0.256 in assay [2], 0.246 in assay [3] and 3.99 in assay [4]. Further, the EC50 (IL-2 ELISA) is > 50 µg/mL in assay [1], > 50 µg/mL in assay [2], > 50 µg/mL in assay [3] and 0.735 µg/mL in assay [4].

With Nb VRC01-KDEL (antibody), the AUC (IL-2 ELISA) in assay [1] worked out at 0.37; in assay [2], 0.355; in assay [3], 0.334; in assay [4], 4.69. In addition, the EC50 (IL-2 ELISA) in assay [1] is > 50 µg/mL; in assay [2], > 50 µg/mL; in assay [3], > 50 µg/mL; in assay [4], 0.419 µg/mL.

For the origin of these results see patent US20250333512A1.
